Data taken from patent publication US20220033515A1.

Experiments:
[1] = target: human vascular endothelial growth factor (hVEGF) (human) (UniProt P15692); test: blocking ELISA: biotin-VEGF with hIgG, capture on Avastin
hVEGF165 (human) = hVEGF165 (human) (UniProt P15692); test: competition ELISA of hIgG, hVEGF165; axis 'Conc (nM)'
hVEGF165 (human), sequence (P15692 other isoform, or with tags, fused parts or gaps limits assumed): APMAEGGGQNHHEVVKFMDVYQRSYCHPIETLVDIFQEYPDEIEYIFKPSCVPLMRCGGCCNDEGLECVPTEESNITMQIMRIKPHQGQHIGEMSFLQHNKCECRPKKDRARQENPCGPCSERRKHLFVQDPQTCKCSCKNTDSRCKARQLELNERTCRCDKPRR

human vascular endothelial growth factor (hVEGF) (human), sequence (P15692 other isoform, or with tags, fused parts or gaps limits assumed): as above

With G6 hIgG (antibody) the IC50 (read off the curve) [1] was 3 nM and the IC50 (read off the curve) (hVEGF165 (human)) was 3 nM.
